{"source": "the nanobody polyreactivity screen of Harvey et al. (2022)", "data": [{"experiment": "yeast display, Sf9 membrane polyspecificity reagent, FACS + sequencing; frameworks hold sequencing errors", "summary_of_the_method": "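Nanobodies from a synthetic yeast display library (Saccharomyces cerevisiae BJ5465), induced 36–48 hours with galactose, were stained 1 hour at 4 °C with 10% biotinylated, detergent-solubilized Sf9 membrane reagent, enriched on streptavidin microbeads, then FACS-sorted. Anti-HA (expression) and streptavidin (reagent binding) fluorescence set low and high (top ~1%) gates. Polyreactivity labels come from the gate of origin. Genes were colony-PCR amplified, MiSeq 2 × 250 sequenced and filtered by CDR length.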", "values": [{"sequence": "QVQLVESGGGLVQAGGSLGLSSAASGIIFLTYAMGWYSQAPGKDRELVAAINSTGSTNYADSVKGRFTISRDNAKNTVYLQMNSLTPEDTAVYYCAAEGLPYVRVFDFVSRYDYWGQGTQVNVSS", "polyreactivity (PSR sort gate)": "low polyreactivity"}, {"sequence": "QVQLVESGGGLVQAGGSLRLSCAASGRTLSTNGMGWYRQAPGKERELVATITRRGGRTYYADSVKGRFTISRDNAKNTVYLQMNSLKPEDTAVYYCATEQADRRVTYKYWGQGTQVTVSS", "polyreactivity (PSR sort gate)": "high polyreactivity"}, {"sequence": "QVQLVESGGGLVQAGGSLRLSCAASGLTFTGYAMGWYRQATGKERELVASISRSGASTFYADSVKGRFTISRDNAKNTVYLQMNSLKPEDTAVYYCAAVPGWLTSRYYYWGQGTQVTVSS", "polyreactivity (PSR sort gate)": "high polyreactivity"}, {"sequence": "QLQLVESGGGLVQAGGSLRLSCAASGSTFRFNTMGWYRQAPGKERGLVACIAAGTTTNYADSVKGRFTISRDNAKNTVYLQMNSLKPEDAAVYYCAALNAFNTGHWYWGQGTQVTVSS", "polyreactivity (PSR sort gate)": "low polyreactivity"}, {"sequence": "QVQLVESGGGLVQAGGSLRLSCAASGYTFSAYAMGCYRQAPGKERELVASITRRRTNYAESVKGRFTISRDNAKNTVYLQMNSLKPEDTAVYYCAATNYVRQYATYDYWGQGTQVTVSS", "polyreactivity (PSR sort gate)": "high polyreactivity"}, {"sequence": "QVQLVESGGGLVQAGGSLRLSCAASGRTFYWNAMGWYRQAPGKERELVAAIRWRGGNTYYADSVKGRFTISRDNAKNTVYLQMNSLKPEDTEVYYCNKYGYKGGVGYDYWGQGTQVTVSS", "polyreactivity (PSR sort gate)": "high polyreactivity"}, {"sequence": "QVQLEESGGGLVQAGGSLRLSCAASGRTLSHYAKGWYRKAPGKERELVAAITRSGGSTYYADSVKGRFTISRDNAKNTVYLQMNRLKPEDTAVYYWNKTLYTSYDFWGQGTQVTVSS", "polyreactivity (PSR sort gate)": "low polyreactivity"}, {"sequence": "QVQLVESGGGLVQAGGSLRLSFAASGITFDHYAMGWYRQAPGKEREFVAAIDDIGGDTYYADSVKGRFTISRDNAKNTVYLQMNSLKPEDTAVYYCAADYGYYSRFYYWGQGTQVTVSS", "polyreactivity (PSR sort gate)": "low polyreactivity"}, {"sequence": "QVQLVESGGGLVQAGGSLRLSCAASGSTFQRYAMGGYRQAPGKERQLVAAISSGGSTYYADSVKGRFTISRDNAKNTVYLQINSLKPEDTAVYYCAARIYVVWSSRVYWMYYWGQGTQVTVSS", "polyreactivity (PSR sort gate)": "high polyreactivity"}, {"sequence": "QVQLVESGGVLVQAGGSLRLSCAASGFTFWDYAMGWYRHAPGKERELVAAISDNDGSTDYADSVKGRFTISRDNAKNTVYLQMNSLKPEDTAVYYCNAEIELPSKEGDYWGQGTQVTVSS", "polyreactivity (PSR sort gate)": "low polyreactivity"}, {"sequence": "QVQLVESGGGLVQAGGSLRLSCAASGNAMGWYRQAPGKERELVAAITRRGGSTYYADSVKGRFTISRDNAKNTVYLQMNSLKPEDTAVYYCNADYAYYSYDYWGQGTQVTVSS", "polyreactivity (PSR sort gate)": "low polyreactivity"}, {"sequence": "QVQLVESGGGLVQAGGSLRLSCAASGNIFSPYAMGWYRPAPGKERELVAAISSGDSTYYADSVKGRFTISRDNAKNTVYLQMNSLKPEDTAVYYCAADANYSNYQYYEFDYWGQGTQVTVSS", "polyreactivity (PSR sort gate)": "low polyreactivity"}, {"sequence": "QVQLVESGGGLVQAGGSLRLSCAASGIIFGPYAMGWYRQAPGKEWELVAAITWSGGGTYYADSVKGRFTISRDNAKNTVYLQMNSLKPEDTAVYYCAKYFPAGYYYWGQGTQVTVSS", "polyreactivity (PSR sort gate)": "low polyreactivity"}, {"sequence": "QVHLVESGGGLVQAGGSLRLSCAASGTIFGEYAMGWYRQAPGKERELVARISVSGTGTYYADSVKGRFTISRVNAKNTVYLQMNSLKPEDTAVYYSATRLYTIRWGGVSYDYDYWGQGTQVTVSS", "polyreactivity (PSR sort gate)": "high polyreactivity"}, {"sequence": "QVQLVESGGGLVQAGGSLRLSSAASGRTFVHYAMGWYRQAPGKERELVAAISWSGGSTYYADSVKGRFTISRDNAKNTVYLQMNSLKPEDTAVYYCNAGGFAPGRYGEFDYWGQGTQVTVSS", "polyreactivity (PSR sort gate)": "low polyreactivity"}, {"sequence": "QVQLEESGGGLVQAGGSLRLSCAASGRIFRYYAMGWSRQAPGKERELVAGISRGTSTYYADSVKGRFTISRDNAKNTVYLQMNSLKPEDTAVYYCAKGSIQYFRPYTFYSWGQGTQVTVSS", "polyreactivity (PSR sort gate)": "high polyreactivity"}, {"sequence": "QVHLVESGGGFVQAGGSLRVSCAASRRIYNLNAMGWYRQAPGKERELVAAISKSGTRTYYADSVKGRFTISRDNAKNTVYLPMNSLKPEDTAVYSCAARRSSVTQSTTYPAVRQRYGYWGQGTQVTVSS", "polyreactivity (PSR sort gate)": "high polyreactivity"}, {"sequence": "QVQLVESGGGLVQAGGSLRLSCAASGFTFKGYTMGWYRQAPGKERELVAGISRRGGSTYYADSVKGRFTISRDNAKNTVYLQMNSLKPEDTAVYYCAADSQLTKFYYWGQGTQVTVSS", "polyreactivity (PSR sort gate)": "high polyreactivity"}, {"sequence": "QVQLVESGGGLVQAGGSLRLSCAASGRIFTGNAMGWYRQAPGKERELVAAISASGGRTYYAYSVKGRFTISRDHAKNTVYLQMNSLKPEDTAVYYCAKVGRTAYTSTYTGVSAYDYWGQGTQVTVSS", "polyreactivity (PSR sort gate)": "high polyreactivity"}, {"sequence": "QVQLVESVGGLVQAGGRLRLSCAASGITFYSYTMGWYRQAPGKERELVAAISDNGGRTFYADSVKGRFTISRDNAKNTVYLQMNSLKPEDTAVYYCAASRRRAVDYWGQGTQVTVSS", "polyreactivity (PSR sort gate)": "low polyreactivity"}, {"sequence": "QVQLVESGGGLVQAGGSLRLSCAASGRTFPFYAMGWYRQAPGKERELVAVITWRGSNTYADSVKGRFTISRDNAKNTVYLQMNSLKPEDTAVYYCSATGGRYIDGYYYWGQGTQVTVSS", "polyreactivity (PSR sort gate)": "high polyreactivity"}, {"sequence": "QVQLVESGGGLVQSGGSLRLSCAASGRTFYGNAMGWYRQAPGKERELVAAITSSGGSTYYADSVKGRFTISRDNAKNTVYLQMNSLKPEDNAVYYCAAYTYLEDFESWGQGTQVTVSS", "polyreactivity (PSR sort gate)": "high polyreactivity"}, {"sequence": "QVQLVESGGGLVQAGGSLRLSCAATGSIFYFYTMGWYRQAPGKERELVAAIDWSSGSTYYADSVKGRFTISRDNAKNTVYLQMNSLKPEDTAVYYCNARDYWTGRHDYWGQGTQVTVSS", "polyreactivity (PSR sort gate)": "low polyreactivity"}, {"sequence": "QVQLVESGGGLVQAGGSLRLSCAASGSTSYRYAMGWYRQAPGKERELVAAIPWISDSTYYADSVKGRFTISRDNAKNTVVLQMNSLKQEDTAVYYCNTDPLVTTVTFNYWGQGTQVTVSS", "polyreactivity (PSR sort gate)": "low polyreactivity"}, {"sequence": "QLQLVESGGGLVQAGGSLRLSCAASGSIFSRNAMGWYRQAPAKERELVAGISTGGSTNYADSVKGRFTISRDNAKNTVYLLMNSLKTEVTAVYYCAAPLAYEGDYWGQGTQVTVSS", "polyreactivity (PSR sort gate)": "low polyreactivity"}, {"sequence": "QVQLVESGGRLVQAGGSLRLSCAASGRIFRDNAMGWYRQAPGKEMELVATIRSGTNTNYADSVKGRFTISRDYAKNTVYLQMNSLKPEDTAVYYCAADLWGSHYTEYRRYPYEYDYWGQGTQVTLSS", "polyreactivity (PSR sort gate)": "low polyreactivity"}, {"sequence": "QVQLVESGGRLVQAGGSLRLSCAASGRIFRYNAMGWYIQAPGKEREFVAAIRGSSSRTYYADSVKGRFTISRDNAKNTVYLQMNSLKPEDTAVYYCNAYVYYSHEDDYWGQGTQVTVSS", "polyreactivity (PSR sort gate)": "high polyreactivity"}, {"sequence": "QVQLVESGGGLVQAGGSLRLTCAASGITFRAYVMGWYRQEPGKERELVAAINRRGGSTYYADSVKGRFTISRDNAKNTVYLQMNSLKPEDTAVYYCAAGLYSTGYTYDYWGQGTQVTVSS", "polyreactivity (PSR sort gate)": "high polyreactivity"}, {"sequence": "QVQLVESGGGLVQAGGSLRLSCAASGGIFDRYAMGWYRPAPGKERELVAGITWSGGRTYYADSVKGRFTISRDNAKNTVYLQMNSLKPEDTAVYYCAASLYTWTYQPVYYRDGYWGQGTQVTVSS", "polyreactivity (PSR sort gate)": "low polyreactivity"}, {"sequence": "QVQLVESGGGLVQAGGSLRLISAASGSSFSSYAMGWYRQAPGKERDLVAAISWRGGSTYYADSVKGRFTISRDNAKNTVYLQMNSLKTEDTAVYFCAKLVRGVGTEMYYWGQGTQVTVSS", "polyreactivity (PSR sort gate)": "high polyreactivity"}, {"sequence": "QVQLVESGGGLVQAGGSLRLSCAASGSIFRWYAMGWYRQAPGKERDLVAAITWSGGRTYYADSVKGRFTISRDNAKNTVYLQMNSLKPEDTAVYDCAKPALVTSYRVGYNYWGQGTQVTVSS", "polyreactivity (PSR sort gate)": "high polyreactivity"}, {"sequence": "QVQLVESGGGLVQAGGSLRLSCAASGLIFAYAMGWYRQAPGTERELVAAISGRDGSTYYADSVKGRFTISRDNAKNTVYLQMNSLKPEDTAVYYCAKRISYLPVEMDYWGQGTQVTVSS", "polyreactivity (PSR sort gate)": "low polyreactivity"}, {"sequence": "QVQLVESGGGLVQAGGSLRLSCAASGRIFSLNAMGWYRQAPGKERELVAGIRKSGGSTYYADSVKGRFTISRDNAKNTVYLQMNSLKPEDTAVYYCAAQPALTYRFYYWGQGTQVTVSS", "polyreactivity (PSR sort gate)": "high polyreactivity"}, {"sequence": "QVQLVESGGGLVQAGGSLRLSCAASGRTFGGYPMGWYRQAPGKERELVASINSGGSTYYADSVKGRFTISRDNAKNTVYLQMNSLKPEDTAVYYCAKRLGGRTLRKYGYWGQGTQVTVSS", "polyreactivity (PSR sort gate)": "high polyreactivity"}, {"sequence": "QVQLQESGGGLVQAGGRLPMSFAASGNIFDADIMGWYRQAPGKERELVASITDGRRTNYADSVKGRYTTSRDSEKNTVYLQMNSLKPEDTAVYYCAAIAYPVVPTYFDYDSDYFHWGQGTQVTVSS", "polyreactivity (PSR sort gate)": "high polyreactivity"}, {"sequence": "QVQLVESGGGLVQAGGSLRLSCAASGIIFTGNAMGWYRQAPGKERELVAAITSGDTTNYADSVKGRFTISRDNAKNTVYLQKNSLKPEDTAVYYCAKELQVRQAGDYWGQGTQVTVSS", "polyreactivity (PSR sort gate)": "low polyreactivity"}, {"sequence": "QVQLVESGGGVVQAGGSLRLTCAASGLTFNIYSLGWYRQAPGKEREFDATISSSGGGTYYADSVKGRFSISRDHAKNTVYVQLHSLPPEDTAVYYCARDSPDHVTYLHYHYDYWGQGTQVTVSS", "polyreactivity (PSR sort gate)": "low polyreactivity"}, {"sequence": "QVQMQESRGGLVQAGGSLRLSCAASGYISYLDFMGWYRQAPGKERELVAGITTGATTNYADSVKGRFTISRDNGKNIVYQQMNSLKPEDTAVYFCAVIGGDTRGHPYWGQGTQLTVSS", "polyreactivity (PSR sort gate)": "low polyreactivity"}, {"sequence": "QVQLVESGGGLVQAGGSLRLSCAASGRTFYFYAMGWYRQAPGKERELVAAITWSDGTTYYADSVKGRFTISRDNAKNTVYLHMNSLKPEDTAVYYCAARVRIYGRRYNYWGQGTQVTVSS", "polyreactivity (PSR sort gate)": "high polyreactivity"}, {"sequence": "QVQLVESGGGLVQAGGSLRLSCAASGSTVKYAMGWYRQAPGKERELVAAISSRGGSTSYADSVNGRFTISRDNAKNTVYLQMNSLKPEDTAVYSCARRIRQQRFGGNYWGQGTQVTVSS", "polyreactivity (PSR sort gate)": "high polyreactivity"}, {"sequence": "QVQLVESGGGLVQAGGSLRLSCAASGSTFPWYAMGWYRQAPGKERELVASITSGTTTNYADSVKGRFTISRDNAKNTVYLQMNSLKPEDTAVYYCAASWVYPYDYWGQGTQVTVSS", "polyreactivity (PSR sort gate)": "low polyreactivity"}, {"sequence": "QVQLVDSGGGLVQAGGSLRLSCAASGSILYHYAMGWYRQAPGKERELVAGISWRGGSTYYADSVKGRFTISRDNAKNTVYLQMNSLKPEATAVYYCATQRYPYRFYAFQYYYWGQGTQVTVSS", "polyreactivity (PSR sort gate)": "low polyreactivity"}, {"sequence": "QVQLVESGGGLVQAGGSLRLSCAASGSIFGRYTMGWYRQAPGKERELVAAISWGGGSTYYADSVKGRFTISRDNAKNSVYLQMNSLKPEDTAVYYCAADTYWAIDPIYDYWGQGTQVTVSS", "polyreactivity (PSR sort gate)": "low polyreactivity"}]}]}
